In publication doi:10.1101/2021.03.15.435138:

Biological target: C-terminal hexahistidyl-tagged GluN3A subunit (UniProt Q9R1M7)
Test: pull-down

C-terminal hexahistidyl-tagged GluN3A subunit, sequence (Q9R1M7 24-1135): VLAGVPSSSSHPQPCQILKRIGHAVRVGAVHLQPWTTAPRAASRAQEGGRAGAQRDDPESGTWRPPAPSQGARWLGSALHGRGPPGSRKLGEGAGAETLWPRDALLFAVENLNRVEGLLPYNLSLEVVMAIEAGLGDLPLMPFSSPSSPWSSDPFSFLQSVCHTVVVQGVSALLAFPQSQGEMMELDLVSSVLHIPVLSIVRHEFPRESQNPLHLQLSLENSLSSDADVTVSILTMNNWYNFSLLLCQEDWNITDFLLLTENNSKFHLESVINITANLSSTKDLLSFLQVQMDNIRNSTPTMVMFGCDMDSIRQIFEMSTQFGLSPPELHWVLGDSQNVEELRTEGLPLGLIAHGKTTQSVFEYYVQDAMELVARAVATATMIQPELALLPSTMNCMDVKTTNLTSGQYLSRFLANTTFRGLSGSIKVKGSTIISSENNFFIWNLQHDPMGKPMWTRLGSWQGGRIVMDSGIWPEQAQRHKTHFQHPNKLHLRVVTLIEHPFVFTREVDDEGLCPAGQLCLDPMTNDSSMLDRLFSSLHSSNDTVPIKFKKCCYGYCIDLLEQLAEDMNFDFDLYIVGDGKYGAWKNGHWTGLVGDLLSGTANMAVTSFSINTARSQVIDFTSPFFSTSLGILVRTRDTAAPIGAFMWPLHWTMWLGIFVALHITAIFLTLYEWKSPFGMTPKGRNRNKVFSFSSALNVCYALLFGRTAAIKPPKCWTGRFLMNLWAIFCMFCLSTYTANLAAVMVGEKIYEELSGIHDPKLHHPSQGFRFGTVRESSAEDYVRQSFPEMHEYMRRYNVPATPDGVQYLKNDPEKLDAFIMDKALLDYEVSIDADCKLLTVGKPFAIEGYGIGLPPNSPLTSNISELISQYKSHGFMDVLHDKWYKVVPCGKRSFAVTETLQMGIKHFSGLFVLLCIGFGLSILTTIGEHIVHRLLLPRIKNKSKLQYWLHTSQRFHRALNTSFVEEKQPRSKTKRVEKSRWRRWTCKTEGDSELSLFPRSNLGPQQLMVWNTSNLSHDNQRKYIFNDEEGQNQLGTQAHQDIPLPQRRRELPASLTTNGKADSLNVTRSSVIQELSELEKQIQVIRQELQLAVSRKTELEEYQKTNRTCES

Row | stoichiometry N | Substance
1 | 1 | GluN1-1a (splice variant 1a) NMDA receptor subunit, wild type (from UniProt P35439 19-938)
2 | 1 | GluN1^1-802, M4-deleted GluN1 (from UniProt P35439 19-802) (domain or fragment)
